Measurements reported in patent US20180142016A1.

B1: P601-153 (scFv, from another filing, V domains shown)
VH: QMQLVQSGAEVKKPGASVKVSCKASGYTFTSYYMHWVRQAPGQGLEWMGIINPSGGSTSYAQKFQGRVTMTRDTSTSTVYMELSSLRSEDTAVYYCARGGYTGWSPSDPWGQGTLVTVSS
VL: QSALTQPASVSGSPGQSITISCTGTSSDVGGYNYVSWYQQHPGKAPKFMIYDVSKRPSGVSNRFSGSKSGNTASLTISGLQAEDEADYYCGSFTSSITYVFGTGTKVTVL
B2: P601-128 (scFv, from another filing, V domains shown)
VH: EVQLVQSGAEVKKPGESLKISCKGSGYSFSRYWIGWVRQMPGKGLEWMGIIYPRDSDTRYSPSFQGQVTISADKSISTAYLQWSSLKASDTAMYYCATPVVTAGAFDIWGQGTMVTVSS
VL: DIQMTQSPSSVSASVGDRVTITCRASQGISSWLAWYQQKPGKAPKLLIYAASSLQSGVPSRFSGSGSGTDFTLTISSLQPEDFATYYCQQANSFPLTFGGGTKVEIK
B3: P601-149 (scFv, from another filing, V domains shown)
VH: EAQLVESGGGLVKPGGSLRLSCAASGFTFSDYYMGWVRQAPGKGLKWLSYISDRAHTIYDTDSVKGRFTISRDDAKSSLYLRMNNLRVEDTAVYYCARAVGAGEGFDYWGQGTLVTVSS
VL: DIQLTQSPSSLSASVGDRVTITCQASQDVRNYLNWYQQKPGKAPNLLIYDATNLESGVPSRFSGSGSGTDFTFTISSLQPEDFATYYCQQYDNLPLSFGGGTKVEIK

Molecular target: human ROR1 extracellular domain (ECD) protein (human) (UniProt Q01973)
Experiment: competitive phage ELISA, soluble vs coated ROR1

Sequence of human ROR1 extracellular domain (ECD) protein (human) (Q01973 30-406 limits assumed): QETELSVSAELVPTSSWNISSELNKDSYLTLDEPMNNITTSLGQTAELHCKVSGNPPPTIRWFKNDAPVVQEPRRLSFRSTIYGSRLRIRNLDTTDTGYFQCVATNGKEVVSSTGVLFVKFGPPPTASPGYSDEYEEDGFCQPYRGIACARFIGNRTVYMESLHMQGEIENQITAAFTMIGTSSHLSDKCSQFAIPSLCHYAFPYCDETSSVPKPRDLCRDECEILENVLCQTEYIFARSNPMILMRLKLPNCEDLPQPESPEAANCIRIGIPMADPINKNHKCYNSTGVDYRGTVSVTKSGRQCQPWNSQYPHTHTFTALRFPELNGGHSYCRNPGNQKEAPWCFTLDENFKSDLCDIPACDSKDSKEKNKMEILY

| Binder | IC50 [nM] |
| --- | --- |
| B1 | 1.53 |
| B2 | 263 |
| B3 | 2.76 |
